Reference: patent publication US20020164721A1, “Design of a polyepitopic construct for the induction of HLA-A2.1 restricted HIV 1 specific CTL responses using HHD mice” (priority 1999, published 2002)

Assays:
[1] = molecular target: T1, HLA-A2.1 molecules on T2 (TAP-, HLA-A2.1+) cells (human); assay: T2 cells, decay of surface peptide-HLA-A2.1 complexes, FACS
[2] = molecular target: T1, HLA-A2.1 molecules on T2 (TAP-, …); assay: T2 cells, HLA-A2.1 stabilisation, BB7.2 immunofluorescence FACS
[3] = molecular target: T1, HLA-A2.1 molecules on T2 (TAP-, …); assay: T2 cells, HLA-A2.1 stabilisation, indirect immunofluorescence FACS

Row | Binder | DC50 (half-life of peptide-HLA-A2.1 complexes) [1] [h] | relative affinity (RA) (ratio to reference peptide HIV 1 rt.476) [2] | relative affinity (RA) (ratio to reference peptide I9V) [3]
1 | YMDGTMSQV (modifications not checked) [Tyrosinase.368-D] | > 6 | 2.27 | –
2 | RMPEAAPPV (modifications not checked) [p53.65] | – | 0.91 | –
3 | LLDGTATLRL (modifications not checked) [gp100.457] | – | 1.65 | –
4 | LLDTGADDTV (modifications not checked) [L10V] | < 2 | – | 10
5 | IISAVVGIL (modifications not checked) [Her2/neu.654] | 4 | – | –
6 | KLTPLCVSL (modifications not checked) [K9L] | > 6 | – | 1.35
7 | FLWGPRALV (modifications not checked) [MAGE-3.271] | 6 | – | –
8 | VLPDVFIRC (modifications not checked) [NA17-A.nt38] | > 8 | 1.52 | –
9 | YMNGTMSQV (modifications not checked) [Tyrosinase.368-N] | > 8 | 2.2 | –
10 | VLYRYGSFSV (modifications not checked) [gp100.476] | – | 10 | –
11 | ILTVILGVL (modifications not checked) [Melan-A/MART-1.32] | – | 21.1 | –
12 | MLLAVLYCL (modifications not checked) [Tyrosinase.1] | – | > 60 | –
